Measurements published in article PMC2171490 (The Journal of Cell Biology, 2005).
Each block holds one binder with its values, some of them ahead of it.

Molecular target: EYFP-HP1β (UniProt P83916 1-185)
Assay: FRET or BRET

Sequence of EYFP-HP1β (P83916 whole entry): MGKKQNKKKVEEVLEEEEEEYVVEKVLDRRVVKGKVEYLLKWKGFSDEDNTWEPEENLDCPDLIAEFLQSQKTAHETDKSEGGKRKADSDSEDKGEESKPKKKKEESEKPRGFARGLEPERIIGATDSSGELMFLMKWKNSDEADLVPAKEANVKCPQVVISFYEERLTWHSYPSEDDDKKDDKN

mean donor fluorescence lifetime τ Mod: 2.7 ns
mean donor fluorescence lifetime τφ: 2.1 ns
B1: ECFP–SUV39H1-ΔSET (domain or fragment, human, UniProt O43463-1 3-249, looked up)
chain: ENLKGCSVCCKSSWNQLQDLCRLAKLSCPALGISKRNLYDFEVEYLCDYKKIREQEYYLVKWRGYPDSESTWEPRQNLKCVRILKQFHKDLERELLRRHHRSKTPRHLDPSLANYLVQKAKQRRALRRWEQELNAKRSHLGRITVENEVDLDGPPRAFVYINEYRVGEGITLNQVAVGCECQDCLWAPTGGCCPGASLHKFAYNDQGQVRLRAGLPIYECNSRCRCGYDCPNRVVQKGIRYDLCIFR

mean donor fluorescence lifetime τ Mod: 2.9 ns
mean donor fluorescence lifetime τφ: 2.2 ns
B2: ECFP-SUV39H1 (enzyme, human, UniProt O43463-1 1-412, looked up)
chain: MAENLKGCSVCCKSSWNQLQDLCRLAKLSCPALGISKRNLYDFEVEYLCDYKKIREQEYYLVKWRGYPDSESTWEPRQNLKCVRILKQFHKDLERELLRRHHRSKTPRHLDPSLANYLVQKAKQRRALRRWEQELNAKRSHLGRITVENEVDLDGPPRAFVYINEYRVGEGITLNQVAVGCECQDCLWAPTGGCCPGASLHKFAYNDQGQVRLRAGLPIYECNSRCRCGYDCPNRVVQKGIRYDLCIFRTDDGRGWGVRTLEKIRKNSFVMEYVGEIITSEEAERRGQIYDRQGATYLFDLDYVEDVYTVDAAYYGNISHFVNHSCDPNLQVYNVFIDNLDERLPRIAFFATRTIRAGEELTFDYNMQVDPVDMESTRMDSNFGLAGLPGSPKKRVRIECKCGTESCRKYLF

mean donor fluorescence lifetime τ Mod: 2.8 ns
mean donor fluorescence lifetime τφ: 2.2 ns
B3: ECFP–SUV39H1-Nchromo (domain or fragment, human, UniProt O43463-1 3-118, looked up)
chain: ENLKGCSVCCKSSWNQLQDLCRLAKLSCPALGISKRNLYDFEVEYLCDYKKIREQEYYLVKWRGYPDSESTWEPRQNLKCVRILKQFHKDLERELLRRHHRSKTPRHLDPSLANYL
